Source: PMC10978878 (Nature Communications, 2024)

B1: SD1-1 Fab (Fab, V domains shown)
VH: QVQLVESGPGLVKPSETLSLTCSVSGGSIDNFYWSWIRQPPGKGLEWIGNIYYGGSGNYNPSLKSRVTISVDTSKNQVSLKLRSVTAADTAVYYCARDSVWYTGSYGLIYWGPGTLVTVSS
VL: SVVTQPASVSGSPGQSITISCTGTSSDVGSYNLVSWFQQHPGKAPKLMIYEVTKRPSGISNRFSGSKSGNTASLTISRLQAEDEADYYCCSYAGSSTVVFGGGTKLTVL
B2: SD1-3 Fab (Fab, V domains shown)
VH: QVQLVESGGGLVQPGGSLRLSCTASGVTFSSYAMSWVRQAPGKGLEWVSGISGSGDSTYYADSVKGRFTISRDNSKNTLYLQMNSLRVEDTAVYYCATHYCSGGSCPFDYWGQGTLVTVSS
VL: PSALTQPPSVSVSPGQTASITCSGDKLGNKYAYWYQQKPGQSPVLVIFQDTMRPSGIPERFSASNSGNTATLTISGTQSIDEADYYCQAWDSNTAVFGGGTKLTVL
B3: SD1-2 Fab (Fab, V domains shown)
VH: QVQLVQSGPGLVKPSQTLSLTCSVSGDSISSGTYYWSWIRLPAGQGLEWIGRVHSSGSTSYNPSLKSRVTISVDTSKNNFSLKLSSVTAADTAVYYCVRLDNCSAGYCHAFDIWGQGTMVTVSS
VL: QSVLTQPASVSGSPGQSITISCTGTSSDVGSYNLVSWYQQHPGKAPKVMIYEVSKWPSGVSNRFSGSKSGNTASLTISGLQAEDEADYYCCSYAGSGTYVFGTGTKVTVL

Key:
[1] = target: BA.4 spike, recombinant trimeric S-twin-Strep, prefusion stabilized (SARS-CoV-2, UniProt P0DTC2); assay: cryo-EM structure; settings: both partners purified
[2] = target: BA.2.12.1 spike, recombinant trimer that retains the native sequence (SARS-CoV-2, UniProt P0DTC2); assay: cryo-EM structure; settings: both partners purified

| Binder | stoichiometry N [1] | stoichiometry N [2] |
| --- | --- | --- |
| B1 | 3 Fab per spike trimer |  |
| B2 |  | 3 Fab per spike trimer |
| B3 |  | 3 Fab per spike trimer |
